Assay results: the RNAGym collection of RNA variant scans (doi:10.1073/pnas.2313332121)

B1: TPR t1 (parent)
chain: GACCAAUCUGCCCUCAGAGCUCGAGAACAUCUUCGGAUGCAGAGGAGGCAGGCUUCGGUGGCGCGAUAGCGCCAACGUCCUCAACCUCCAAUGCAUCCCACCACAUGAUGAUGCCUGAAGAGCCUUGGUUUUUUG

Variants of: B1
Experiment: polymerase ribozyme fitness, log enrichment relative to wild type (log ratio); higher = more active; in vitro selection for triplet polymerase activity
Summary of the method: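 Fitness compares each genotype's enrichment to that of the wild type on a logarithmic scale, averaging replicates with inverse-variance weights. The logarithm is base 2. Enrichment came from Illumina sequencing of input and output libraries after one triplicate round of in vitro selection, which included frozen incubation at −7 °C, of PCR-built, transcribed mutant libraries of each subunit of a heterodimeric triplet polymerase ribozyme. Only genotypes with ≥10 input reads and ≥1 read per output were kept.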

Variant | polymerase ribozyme fitness (log ratio)
C40U A46G C64U A84C | -1.65
C40A C104U G110U A111U C123G U125G | -6.57
C40U A74G C79G | -2.36
C40A U92C A118G | -2.05
C40U G120A | 0.164
C40U G120U | -0.132
C40G G48U G69U | -1.67
C40U C70U | -0.997
C40U C56A A91G | -2.75
C40G G71A U78G | -2.94
C40U C64U C85U A100G U106C U112C | -2.44
C40G U92G G120A | -2.62
C40U C49A A50G C62U A105G | -4.71
C40A G45A C56U G110C | -6.54
C40U G61C U126G | -4.04
C40U C115U U125G U133C | -0.584
C40G A75U G127A | -2.31
C40G G61U A91U C104U | -3.37
C40A C80A G93U C101A | -3.95
C40U C56G C88G G93A | -2.89
C40U C53U C72A C97U | -0.251

Variant | polymerase ribozyme fitness (log ratio)
C40U G45A U78G U81A | -2.5
C40A G63A C79A C86A C104A C114U | -7.08
C40U C85A G120C | -0.223
C40U C98A A121C | -4.03
C40G C56A G57U C70A C72U G77A | -4.22
C40U G60U | -0.21
C40U C73G | -0.891
C40G G44C A74U | -1.5
C40U G42A G122U C123A | -1.77
C40A G52A G58A C62U A119U U126A | -4
C40G G57A G61U G113A A121G G122A | -2.96
C40U A74C G77U C94U C114G | -2.59
C40G G48U A105U | -3.14
C40G C89G G93A | -2.6
C40G A100U C101A | -3.4
C40G A43U U59A C70A C114A G117U | -6.29
C40U G45U U55A C73U | -1.76
C40U G63C C80U | -1.53
C40U G48U G52A A121U | -0.327
C40U G57U C79A | -1.3
C40A C114A G135A | -3.46

Variant | polymerase ribozyme fitness (log ratio)
C40G G47U G71U | -6.34
C40U C85A U129G U132C | -5.2
C40U C62U C73G C85G | -5.15
C40U G107U | -6.46
C40U C97U C102A A111G | -2.88
C40U C56A | -0.555
C40U A90G C123U | 1.26
C40A C64U C85A C102A U112G C123U | -5.99
C40G U81A | -2.17
C40G G61C | -2.49
C40G G61U | -2.33
C40U G61A U78C | -0.104
C40A C56G U87G A95U C101A C124A U133C | -5.07
C40G C102A A118U | -2.92
C40U G44U U78A C89A A111C G117A G135C | -3.17
C40U C53U A121G | 1.58
C40U G60C U96G A118G | -1.31
C40A C89G | -2.81
C40G U133G | -0.607
C40U G69C C85U A100G U106C U112C | -4.82
C40G C72G | -1.56

Variant | polymerase ribozyme fitness (log ratio)
C40G G71U | -1.23
C40A G63A A84U | -2.88
C40G G48C G93C | 0.0171
C40U G60U C94A C101G U106A | -1.22
C40G G57C C79U G93U G117C C123A | -4.88
C40U C70G C98U A119U | -3.66
C40U C53U A66G | -1.67
C40U A43G U130A | -3.26
C40A C56G A105C U106G | -4.78
C40U C70A C102A C124A | -3.93
C40G C86G | -2.86
C40G A46U | -2.96
C40U C94U G128U | -4.33
C40G C53G G77A U106C U116C | -3.58
C40U C73U G93U U130G | -2.36
C40A G57A | -3.1
C40U G113U U129C | -3.58
C40U C97A | -5.23
C40U G63A C102G C114G G122A | -8.78
C40A C56U A119U G122A | -1.84
